Results as given in publication PMC10126545 (2023).
“And” between values parts separate entries of the source, which are not always exact repeats. Equal values may be shown once.

What was measured:
Assay in all cases: BLI
[1] = target: COBRA P1 HA N127D mutant, CHO expressed, for binding assays
[2] = target: T1, COBRA P1 HA wild type, CHO expressed, for binding assays (glycosylation at Asn127)
[3] = target: T1, COBRA P1 HA wild type, CHO expressed, …; remark: listed apart in the source

B1: Fab 1F8 (recombinant Fab of the P1-elicited mouse monoclonal antibody 1F8) (Fab, V domains shown)
VH: QVQLQQSGAELMKPGASVKISCKATGYTFSSYWIEWVKQRPGHGLEWIGEILPGSGRTNYDERFKGKATFTADTSSNTAYMQLSSLTSEDSAVYYCARPRIYGMDYWGQGTSVTVSS
VL: DIVLTQSPASLAVSLGQRATISCKASQSVDFDGDTYMSWYQQKPGQPPKLLIYAASKLESGIPARFSGSGSGTDFTLNIHPVEEEDAATYFCQQSNEDPWTFGGGTKLEIK
koff [1]: 0.000855 s⁻¹ | koff [2]: 0.000813 s⁻¹ | Kd [3]: 2.56 nM and 3.35 nM
